The RNAGym collection of RNA variant scans (doi:10.1073/pnas.2313332121)
Variants at the floor of the assay were thinned out.

B1: TPR 5TU (parent)
chain: GGAUCUUCUCGAUCUAACAAAAAAGACAAAUCUGCCACAAAGCUUGAGAGCAUCUUCGGAUGCAGAGGCGGCAGCCUUCGGUGGCGCGAUAGCGCCAACGUUCUCAACUAUGACACGCAAAACGCGUGCUCCGUUGAAUGGAGUUUAUCAUG

Variants of: B1
Assay: polymerase ribozyme fitness, log enrichment relative to wild type (log ratio); higher = more active; in vitro selection for triplet polymerase activity
Outline: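 Fitness measures genotype enrichment against wild-type enrichment on a logarithmic scale, with inverse-variance-weighted averaging of replicates. The logarithm is base 2, and genotypes were kept only with ≥10 input reads and ≥1 read per output in Illumina sequencing. The sequenced libraries came from one triplicate in vitro selection round, including frozen incubation at −7 °C, of PCR-built, transcribed mutant libraries of each subunit of a heterodimeric triplet polymerase ribozyme.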

| Variant | polymerase ribozyme fitness (log ratio) |
| --- | --- |
| A26G G58A C105G G117C U127G | ≤ -4.2 |
| A24U A113C | -3.05 |
| A23G G83A G94A C125U A147C | ≤ -4.2 |
| A24C U33A C35G U53A U82C G92U G136A | ≤ -4.2 |
| A24U C93U U104G | -1.84 |
| A24U A28U A39C G59C A60U A66G G68C C79G G81A C116G C125U | ≤ -4.2 |
| G25U A41G C93G A113U A150U | ≤ -4.2 |
| A26U A122G C131A | -3.89 |
| G25C C69G C96A C99U C118A | ≤ -4.2 |
| A26C G68C A122C U135C U139G U145G | ≤ -4.2 |
| G25C G48A C87U A142G | -4.11 |
| A24U U56A G62C | -1.06 |
| A24U U45A | -3 |
| A24U G50C C57U C79G C118G U148C | ≤ -4.2 |
| A26U A41C U44A G59A G126U G128A A137G | ≤ -4.2 |
| G25U C103G | -3.2 |
| A24C U56G G59C A91U U144C G152U | ≤ -4.2 |
| A23U A60G G81A G83U | ≤ -4.2 |
| A24C C75A A106U C132G U139C A142U | ≤ -4.2 |
| A26C A137G U144A | -4.13 |
| A26G A28U G42C G59C C96G C105G C116U | -4.04 |
| A24G A47G G48A C75U G86A | ≤ -4.2 |
| A24U A121U G124U | -1.16 |
| G25U G58U A97C | -2.23 |

| Variant | polymerase ribozyme fitness (log ratio) |
| --- | --- |
| A24G C35U A89U G92C C125A | ≤ -4.2 |
| A24U C54A G58A G84A A120G G126U | -1.19 |
| G25C | -2.52 |
| G25A | -1.62 |
| G25U | -1.73 |
| G25U A52C C87A U90G A142G | ≤ -4.2 |
| A24U G83U G136A U146C A150G | -3.59 |
| A26U A30U G48A | ≤ -4.2 |
| A23U A52G C76U C79A C103A | ≤ -4.2 |
| A24U G84A G94U C96A A121U G126U U135A | -4.1 |
| A23U C93A U135C | ≤ -4.2 |
| A23C G84U A106U G117U C118U C123U A142G | ≤ -4.2 |
| A24U A60G C79G C96G U109C | ≤ -4.2 |
| A23U A26U U33G A37C C72G C76A C95G U144C | ≤ -4.2 |
| G25A C35U U56A A60C C85A C93U A106C | ≤ -4.2 |
| A23G A29G C95G G152U | -3.84 |
| A26G C32G A64G C103A | ≤ -4.2 |
| G25U C35U G86C C103U G133U | ≤ -4.2 |
| A24U C57A A89U C95U C118U G143U | ≤ -4.2 |
| A24U U148C | -2.14 |
| A23U A29C C85G A110G G112U | ≤ -4.2 |
| A23C G67A A73U C96U G140C | ≤ -4.2 |
| A24G G71C C79G C85A G124U U130G U148C | ≤ -4.2 |
| A24U A37U C51A C87U A98U G100U | ≤ -4.2 |

| Variant | polymerase ribozyme fitness (log ratio) |
| --- | --- |
| A24G U31C | -3.52 |
| G25U A49G A52U U90G C125G A142U G143C | ≤ -4.2 |
| A24C A26U U31A G68U C87A A89G A98G C132G | ≤ -4.2 |
| A26U C36G U134A G143U U144C | ≤ -4.2 |
| A24C A28G U53A U134A | ≤ -4.2 |
| A26C G50C G71U A73G | ≤ -4.2 |
| A23G A47C | -2.96 |
| A23U A28G U55A G59A U78G G128A | -3.79 |
| A24U A26C A29U A40U A52G G62U C85U | ≤ -4.2 |
| A23U A49C U61G C87A | ≤ -4.2 |
| G25C A26C | -2.94 |
| A24U C96U C129G | -3.47 |
| A23G C54G U56A A142C | ≤ -4.2 |
| A26G C27G A40G C57U C85U C118U | -3.9 |
| A26C C63U C85A A120U | -3.53 |
| A24U U31A C63G C76A | -3.16 |
| A24U G42A G88A G92A A115C | ≤ -4.2 |
| A24U G58A G88U | ≤ -4.2 |
| A24U C32G U55G U78A U104G | ≤ -4.2 |
| A23U A41G | -3.88 |
| A23U U61A A107U A115G | ≤ -4.2 |
| G25C A39U U44C A91G C95U | ≤ -4.2 |
| A23U U33A U45A G46A C96U | -4.15 |
| G25U A52C C63U G88C U127C | ≤ -4.2 |

| Variant | polymerase ribozyme fitness (log ratio) |
| --- | --- |
| A26U G46U G58A A73U C85G U111G | ≤ -4.2 |
| A26C C54G A121G | -2.79 |
| G25U U61G A66C C87U A137G | ≤ -4.2 |
| A26U A52G C85U | -1.69 |
| A24U C35U G42C C93U G136C A142G | -4.03 |
| A23U A29U C85A A115G G143C | ≤ -4.2 |
| A24C G58A G59A A147C | ≤ -4.2 |
| A24U U77A G92A C125G | ≤ -4.2 |
| A26C C51U A66G U77A C149G | ≤ -4.2 |
| A24U C35U C75U | -2.19 |
| A24C A37C G59A C99G A107U | ≤ -4.2 |
| A26G C27U G46U G50U C75A | ≤ -4.2 |
| A23U G80U A91U G143C A150G | ≤ -4.2 |
| A24U U45G G86A | -2.58 |
| A26C A52C | -3.22 |
| A26G A40G U55A G92A C123G C125U G126A U127C | ≤ -4.2 |
| A26G G42C C95U A150U | ≤ -4.2 |
| A26C A52C C85U G117A A142G | -3.88 |
| A23U G83U C93A G126U C129U | ≤ -4.2 |
| A26G G42U G48C G50U G84C C87G | ≤ -4.2 |
| A23U A119G A120U G152A | ≤ -4.2 |
| A23G C85U | -2.38 |
| A24G A49C C51A U78G G81C | ≤ -4.2 |
| A26C U53A G58A | -2.74 |

| Variant | polymerase ribozyme fitness (log ratio) |
| --- | --- |
| A23C U45C A52C U55A C75G C76U C93A A119G G143U | -4.17 |
| G25A C76U C87A A110G A120G | ≤ -4.2 |
| G25C A40U C87U C93A C95U | ≤ -4.2 |
| A23C G58A G62A C87A C116G U135G | ≤ -4.2 |
| A24G G25A G84A C125G G152A | ≤ -4.2 |
| A24U G50U U56G G58U C76U A122G | -4.1 |
| A23G U144G | -1.79 |
| A26U A52C C96A | -3.2 |
| G25C A26U A30U A39U U56G U77A A138U | ≤ -4.2 |
| A24U C79U U102G C118U A119G G140A | ≤ -4.2 |
| A24C A49U C87A G92A G140U | ≤ -4.2 |
| A24G C27G A28G C32A U55A U56A C76A C85A G92C U130G | ≤ -4.2 |
| A23U C87G A91G | ≤ -4.2 |
| G25U C63G G88C C108U | -3.94 |
| G25C C27U U45C G71U U82A G83A G92U | ≤ -4.2 |
| A24U C93U C118U A121G | -1.37 |
| A24U G46C A60C U102G | ≤ -4.2 |
| G25C A60U C93A C95G A137G | ≤ -4.2 |
| A24U C36A U44A C72G C95A A119G G140C | ≤ -4.2 |
| A26C A91G G136C | ≤ -4.2 |
| G25A A28U G94A U102A A137C | ≤ -4.2 |
| A23C U53A C93U U134G | ≤ -4.2 |
| A26G C76A | -3.95 |
| G25A A28U A41U A66U G83U U111G C118U | ≤ -4.2 |

| Variant | polymerase ribozyme fitness (log ratio) |
| --- | --- |
| A23G A40C G141C | -3.82 |
| A26U A97U A119G | -2.34 |
| A23U C38U C114U G126A | ≤ -4.2 |
| A26G C75A G81A G140A U148C | ≤ -4.2 |
| A23U G46U G67U C96G U146G U151A | ≤ -4.2 |
| A26C G59U A89C A113G C132G G141U | ≤ -4.2 |
| G25A C72U G80U C93A C114U | ≤ -4.2 |
| A24C G67A G92U | ≤ -4.2 |
| A26G A60G | -3.55 |
| A24C A40U G94A C116A | ≤ -4.2 |
| A24C A73G G86U C99G C149G | ≤ -4.2 |
| A24C G67C C87U A122U A142G | ≤ -4.2 |
| A23U C27G A37U C95G A110G G140C | -3.86 |
| A24U A28G A29U C93G C114U | ≤ -4.2 |
| A23G U44A U56A | ≤ -4.2 |
| A24G G50C C72U C87G U111C | ≤ -4.2 |
| A26U C43G C85G C132U | ≤ -4.2 |
| A23U C108A G143C | ≤ -4.2 |
| A24U G84U | -2.26 |
| A26U C87G | ≤ -4.2 |
| A26U C87U | -1.74 |
| A23C U44C U55G C57A C93U U145A | ≤ -4.2 |
| A24C C27A U56A G58A C72U A73U C87U | ≤ -4.2 |
| A24U A52G C79G G94A A107G | ≤ -4.2 |

| Variant | polymerase ribozyme fitness (log ratio) |
| --- | --- |
| A23G C35U U56A C85A C118U G124U | -4.08 |
| G25U U55G A73G A120C C123U | -3.39 |
| G25C C54U A73G G84A C85A A89C | ≤ -4.2 |
| A24U A52C | -0.457 |
| A24G C108U U148G | ≤ -4.2 |
| G25C G58A C72A G80A C87A C118G | ≤ -4.2 |
| A23U C96U U127C U144G A150G | ≤ -4.2 |
| A26C A52C C54A C114A C129G U134A | ≤ -4.2 |
| G25U A49C G88U A97G | ≤ -4.2 |
| A23G C51G U53A A60G G84A U104G C116U A121C | ≤ -4.2 |
| A26U A73U A91U C96G A137C | ≤ -4.2 |
| A24U G48U G83A | -1.25 |
| A26U C35A U104G A150C | ≤ -4.2 |
| A26G A73U C85A U151G | ≤ -4.2 |
| A23U C57U | -3.64 |
| A23U U55A U61C G67A C87U G126U G136C G140U | ≤ -4.2 |
| A23U C85A | ≤ -4.2 |
| A26U A49G U101G A120G A147C | ≤ -4.2 |
| A26U C75U U148G | ≤ -4.2 |
| A26G U44G A47C A49C C72G C76G A91C C103G C105G | ≤ -4.2 |
| A26C C87U A122G A142G | -3.94 |
| G25U U56A G84U C95A C96U A119C G141U U148C C149A | ≤ -4.2 |
| A24U G92U | 0.213 |
